Measurements: PMC10843684 (Molecular cell, 2023)
Each block holds one binder with its values, some of them ahead of it.

How the values were obtained:
Assay in all cases: cryo-EM structure
[1] = biological target: T1, RMND5A (RING subunit of the CTLH E3 catalytic module) (human, UniProt Q9H871 1-391)
T1 sequence: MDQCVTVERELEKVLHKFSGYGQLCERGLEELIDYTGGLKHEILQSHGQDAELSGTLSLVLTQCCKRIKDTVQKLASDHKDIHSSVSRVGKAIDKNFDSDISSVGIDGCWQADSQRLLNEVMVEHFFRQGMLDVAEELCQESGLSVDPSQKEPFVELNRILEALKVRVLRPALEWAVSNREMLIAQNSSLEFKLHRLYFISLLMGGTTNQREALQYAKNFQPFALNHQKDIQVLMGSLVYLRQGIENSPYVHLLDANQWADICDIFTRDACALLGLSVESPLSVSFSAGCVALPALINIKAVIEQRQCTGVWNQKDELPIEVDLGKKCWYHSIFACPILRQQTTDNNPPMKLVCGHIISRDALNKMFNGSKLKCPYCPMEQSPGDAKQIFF

[2] = biological target: T2, MAEA (U-box subunit of the CTLH E3 catalytic module) (human, UniProt Q7L5Y9 1-396)
T2 sequence: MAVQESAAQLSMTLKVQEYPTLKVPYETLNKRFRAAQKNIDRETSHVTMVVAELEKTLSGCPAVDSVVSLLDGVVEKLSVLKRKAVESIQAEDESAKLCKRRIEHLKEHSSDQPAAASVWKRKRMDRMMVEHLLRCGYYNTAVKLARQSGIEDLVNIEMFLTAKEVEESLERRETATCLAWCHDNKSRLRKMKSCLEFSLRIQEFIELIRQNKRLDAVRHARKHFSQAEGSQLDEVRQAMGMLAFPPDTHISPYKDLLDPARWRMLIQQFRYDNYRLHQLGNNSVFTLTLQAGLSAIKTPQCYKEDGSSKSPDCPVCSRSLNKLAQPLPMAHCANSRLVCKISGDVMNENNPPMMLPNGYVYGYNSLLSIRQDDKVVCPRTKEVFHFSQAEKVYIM

Chelator-GID^SR4 = Chelator-GID^SR4 (S. cerevisiae, UniProt P53076 1-958; P40208 1-455; P40547 1-921; P38263 1-362; Q12508 1-421; P40492 …)

binding result [1]: binds
binding result [2]: binds
B1: UBE2H C87K, insect cell-expressed and fully phosphorylated with CK2 (the E2 chain of the UBE2H~ubiquitin mimic) (enzyme, human, UniProt P62256 1-183, looked up)
chain: MSSPSPGKRRMDTDVVKLIESKHEVTILGGLNEFVVKFYGPQGTPYEGGVWKVRVDLPDKYPFKSPSIGFMNKIFHPNIDEASGTVKLDVINQTWTALYDLTNIFESFLPQLLAYPNPIDPLNGDAAAMYLHRPEEYKQKIKEYIQKYATEEALKEQEEGTGDSSSESSMSDFSEDEAQDMEL
modifications: phosphoserines 164, 165, 166, 168, 169, 171 and 174; K87 isopeptide-bonded to ubiquitin

B2: Fbp1-6xHis (fructose-1,6-bisphosphatase) (natural protein, S. cerevisiae)
chain: MPTLVNGPRRDSTEGFDTDIITLPRFIIEHQKQFKNATGDFTLVLNALQFAFKFVSHTIRRAELVNLVGLAGASNFTGDQQKKLDVLGDEIFINAMRASGIIKVLVSEEQEDLIVFPTNTGSYAVCCDPIDGSSNLDAGVSVGTIASIFRLLPDSSGTINDVLRCGKEMVAACYAMYGSSTHLVLTLGDGVDGFTLDTNLGEFILTHPNLRIPPQKAIYSINEGNTLYWNETIRTFIEKVKQPQADNNNKPFSARYVGSMVADVHRTFLYGGLFAYPCDKKSPNGKLRLLYEAFPMAFLMEQAGGKAVNDRGERILDLVPSHIHDKSSIWLGSSGEIDKFLDHIGKSQ
binding result (Chelator-GID^SR4): binds
